This series can be described thus: protein stability index of a GFP-peptide fusion (GPS, HEK-293T) (PSI 1-6); higher = more stable. Particulars: c terminus: a fixed tail appended.

± gives the standard deviation.
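Further: 24-mer peptide tiles fused after GFP, lentivirally expressed, FACS-sorted into six equal bins by GFP/DsRed ratio, decoded by Illumina sequencing, PSI is the read-weighted mean bin number.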

For the sequence ENCLDAKSTSIQVIVKEGGLKLIQ [MLH1], the protein stability index was 2.7 ± 0.37 (treatment: DMSO) and 2.94 ± 0.22 (treatment: MLN4924 1 uM, 8 h).
For the sequence ENVLHFKAQGHGAKGDNVYEFHLE [HACD3], the protein stability index turned out to be 3.57 ± 0.3 (treatment: DMSO) and 3.79 ± 0.17 (treatment: MLN4924 1 uM, 8 h).
On to EPASAREAPASVVPFVRVKREREV [USP39], for which the protein stability index reads like this: (treatment: DMSO) 4.93 ± 0.3; (treatment: MLN4924 1 uM, 8 h) 4.87 ± 0.58.
For EPHSLLHLSRLCVRHNLGDTRLGQ [SPSB2], the protein stability index is 3.44 ± 0.18 (treatment: DMSO) and 3.35 ± 0.19 (treatment: MLN4924 1 uM, 8 h).
Turning to EPPCEGNTFFCHSNMCINNTLVCN [NETO1], the protein stability index (treatment: DMSO) was determined as 2.9 ± 0.24 and the protein stability index (treatment: MLN4924 1 uM, 8 h) is 2.85 ± 0.35.
Taken in the same sequence, the figures for EQDRIPEVHVPPSSAVSGVKEWFG [MIA2] were 4.35 ± 0.099 and 4.46 ± 0.35.
In the case of EQSSARQKASLLIQQALTMFPGVL [TCF25], the protein stability index amounted to 2.51 ± 0.3 (treatment: DMSO) and 2.54 ± 0.3 (treatment: MLN4924 1 uM, 8 h).
On to ERDALEAVFRFWAGGEKGPQAFPM [DNAAF3], for which the protein stability index reads like this: (treatment: DMSO) 2.5 ± 0.24; (treatment: MLN4924 1 uM, 8 h) 2.58 ± 0.28.
As to ERLLAVAERYGLSGSDVLDNVAYA [RAD51], the protein stability index runs as follows: (treatment: DMSO) 2.8 ± 0.23; (treatment: MLN4924 1 uM, 8 h) 2.95 ± 0.094.
Taken in the same sequence, the figures for ERNEVRNVFKELQIMQGLEHPFLV [STK32A] were 2.71 ± 0.32 and 2.72 ± 0.41.
On to ERSQEESPPGSTKRRKSMSGASPK [CDC25A], for which the protein stability index by setting is: (treatment: DMSO) 5.48 ± 0.19; (treatment: MLN4924 1 uM, 8 h) 5.46 ± 0.12.
ERSRDVVDEVSVSLRLWDTFGDHH [RHOBTB1] showed a protein stability index (treatment: DMSO) of 3.27 ± 0.2 and a protein stability index (treatment: MLN4924 1 uM, 8 h) of 3.32 ± 0.31.
The sequence ERVYSLQHLDPQGAQELLEFTIRD [INTS4] gave a protein stability index (treatment: DMSO) of 3.74 ± 0.42 and a protein stability index (treatment: MLN4924 1 uM, 8 h) of 3.69 ± 0.31.
For ESAKDWETSPLPGMLAPAAGPAFD [PPFIA4], the protein stability index is, setting by setting: (treatment: DMSO) 4.62 ± 0.076; (treatment: MLN4924 1 uM, 8 h) 4.61 ± 0.33.
Turning to ESLTEDEATQFLKQILDGVHYLHS [DAPK3], the protein stability index is, setting by setting: (treatment: DMSO) 3.06 ± 0.28; (treatment: MLN4924 1 uM, 8 h) 3.29 ± 0.28.
In the same order, the values of ESPDEMELDELLKEISRKRRSIRY [PTPRD] are 3.05 ± 0.24 and 3.4 ± 0.069.
Taken in the same sequence, the figures for ESSQKYKEGKYIIELNHMIKDNGW [YPEL3] were 3.04 ± 0.21 and 3.08 ± 0.27.
Consider ETLDYGKNYNYGMHYCAVPPRGPL [NEUROD6], for which the protein stability index reads like this: (treatment: DMSO) 2.65 ± 0.31; (treatment: MLN4924 1 uM, 8 h) 2.68 ± 0.14.
In the case of ETYKMEFMYSGVENKQVVIIHHMR [INTS4], the protein stability index runs as follows: (treatment: DMSO) 2.72 ± 0.56; (treatment: MLN4924 1 uM, 8 h) 2.46 ± 0.47.
Taken in the same sequence, the figures for EVESLTAARNACRAGTEPSDAIRV [TRIP13] were 4.33 ± 0.15 and 4.51 ± 0.27.
EVETEGPESADTGDKSESPDEANV [TOR1AIP2]: the protein stability index (treatment: DMSO) was 5.32 ± 0.41 and the protein stability index (treatment: MLN4924 1 uM, 8 h) was found to be 5.58 ± 0.3.
Take EVILLVVMAYDRYMAICKPLHELI [OR4A15]: the protein stability index is, setting by setting: (treatment: DMSO) 3.26 ± 0.43; (treatment: MLN4924 1 uM, 8 h) 2.97 ± 0.44.
In the same order, the values of EVIYPQHSKLTDREKTNICYLSFP [DENND6A] are 2.2 ± 0.43 and 2.54 ± 0.38.
Regarding EVKLLLSSETPIEGKNMSFVNDLT [APMAP], the protein stability index (treatment: DMSO) is 3.35 ± 0.23 and the protein stability index (treatment: MLN4924 1 uM, 8 h) came to 3.56 ± 0.13.
Regarding EVMERDAKDYADSIHAIFVETSAK [RAB22A], the protein stability index is, setting by setting: (treatment: DMSO) 4.15 ± 0.28; (treatment: MLN4924 1 uM, 8 h) 4.13 ± 0.24.
In the same order, the values of EYLSLVKGGQDVKKKVHLSEKIHP [PRIM1] are 2.65 ± 0.3 and 2.79 ± 0.39.
In the case of FANGHTYHINSISVNSDCETYMSA [PPP2R2C], the protein stability index was 2.68 ± 0.69 (treatment: DMSO) and 2.63 ± 0.23 (treatment: MLN4924 1 uM, 8 h).
Taken in the same sequence, the figures for FEFRPELVNDDDEEADDTRYTQGT [ZC3H15] were 5.44 ± 0.25 and 5.28 ± 0.2.
In the same order, the values of FEGEGDYEEGMYADWWQEPDAKGD [P3H4] are 5.31 ± 0.12 and 5.35 ± 0.16.
With FFPMGDEGASSQIGRAAGTGFTVN [HDAC6], the protein stability index reads like this: (treatment: DMSO) 3.46 ± 0.17; (treatment: MLN4924 1 uM, 8 h) 3.69 ± 0.15.
For the sequence FGAAGVNRLSIGLQSLDDTELRLL [RSAD1], the protein stability index is, setting by setting: (treatment: DMSO) 2.8 ± 0.094; (treatment: MLN4924 1 uM, 8 h) 2.76 ± 0.54.
On to FGGSFMAPSPSPVTPAQNNLLQPN [SNAP91], for which the protein stability index stood at 2.64 ± 0.59 (treatment: DMSO) and 3.09 ± 0.4 (treatment: MLN4924 1 uM, 8 h).
As for FHIFRTLEVNRLMGKLLQQPNTYA [PKD2L1], the protein stability index by setting is: (treatment: DMSO) 2.46 ± 0.68; (treatment: MLN4924 1 uM, 8 h) 2.5 ± 0.26.
As for FHKQQWFNCIRAAIAPFQSAGSPP [NET1], the protein stability index worked out at 2.69 ± 0.58 (treatment: DMSO) and 2.5 ± 0.3 (treatment: MLN4924 1 uM, 8 h).
In the same order, the values of FHNCLIQLYCEKVQGLMKEYLLSF [VPS39] are 2.96 ± 0.26 and 3.2 ± 0.7.
For the sequence FIGETLLSMNWAIVADILLYVVIP [SPNS1], the protein stability index is, setting by setting: (treatment: DMSO) 3.29 ± 0.34; (treatment: MLN4924 1 uM, 8 h) 3.45 ± 0.25.

These data come from the supplement of paper PMC10567573.
